Assay results reported in paper PMC10193809, “A small protein coded within the mitochondrial canonical gene nd4 regulates mitochondrial bioenergetics” (BMC Biology, 2023).

Molecular target: the molecule itself
Assay: cross-linking; 3 µg synthetic MTALTND4 in 20 µl PBS 1x with 0%, 0.5% or 1% paraformaldehyde, 30 °C, 10 min; tricine-SDS-PAGE, Coomassie stain

B1: MTALTND4 (mitochondrial alternative ND4 protein), complete synthetic peptide (peptide)
chain: MRHNYNKLHLPTTNRPKIAHCMLFNQPHSPRSNSHSHPNPLKLHRRSHSHNRPRAYILITILPSKLKLRTHSQSHHNPLSRTSNSTPTNSFLMTSSKPR
notes: M.W. 11,532.06 g/mol as printed in the methods; also called MTALND4; synthetic MTALTND4; source: synthetic peptide (LifeTein; purity verified by HPLC by the supplier)
  stoichiometry N: 2
